Experimental data as given in US10597674B2, “HPPD variants and methods of use” (BASF Agricultural Solutions Seed, US LLC, priority 2015, dated 2020).

B1: SEQ ID NO: 32: mutant HPPD polypeptide: P268R T270E E335P G336H N337S A340V I345V (protein)
chain: MADLYENPMGLMGFEFIEFASPTPGTLEPIFEIMGFTKVATHRSKNVHLYRQGEINLILNNEPNSIASYFAAEHGPSVCGMAFRVKDSQKAYNRALELGAQPIHIDTGPMELNLPAIKGIGGAPLYLIDRFGEGSSIYDIDFVYLEGVERNPVGAGLKVIDHLTHNVYRGRMVYWANFYEKLFNFREARYFDIKGEYTGLTSKAMSAPDGMIRIPLNEESSKGAGQIEEFLMQFNGEGIQHVAFLTDDLVKTWDALKKIGMRFMTAPRDEYYEMLEGRLPDHGEPVDQLQARGILLDGSSVEGDKRLLLQIFSETLMGPVFFEFIQRKGDDGFGPHSFKVLFESVERDQVRRGVLTAD
modifications: mutant HPPD polypeptide
notes: mutant HPPD polypeptide: P268R T270E E335P G336H N337S A340V I345V
B2: SEQ ID NO: 96: mutant HPPD polypeptide: R213K P268G T270E E335P G336H N337S A340V I345V (protein)
chain: MADLYENPMGLMGFEFIEFASPTPGTLEPIFEIMGFTKVATHRSKNVHLYRQGEINLILNNEPNSIASYFAAEHGPSVCGMAFRVKDSQKAYNRALELGAQPIHIDTGPMELNLPAIKGIGGAPLYLIDRFGEGSSIYDIDFVYLEGVERNPVGAGLKVIDHLTHNVYRGRMVYWANFYEKLFNFREARYFDIKGEYTGLTSKAMSAPDGMIKIPLNEESSKGAGQIEEFLMQFNGEGIQHVAFLTDDLVKTWDALKKIGMRFMTAPGDEYYEMLEGRLPDHGEPVDQLQARGILLDGSSVEGDKRLLLQIFSETLMGPVFFEFIQRKGDDGFGPHSFKVLFESVERDQVRRGVLTAD
modifications: mutant HPPD polypeptide
notes: mutant HPPD polypeptide: R213K P268G T270E E335P G336H N337S A340V I345V
B3: SEQ ID NO: 31: mutant HPPD polypeptide: P268G T270E E335P G336H N337S A340V I345V (protein)
chain: MADLYENPMGLMGFEFIEFASPTPGTLEPIFEIMGFTKVATHRSKNVHLYRQGEINLILNNEPNSIASYFAAEHGPSVCGMAFRVKDSQKAYNRALELGAQPIHIDTGPMELNLPAIKGIGGAPLYLIDRFGEGSSIYDIDFVYLEGVERNPVGAGLKVIDHLTHNVYRGRMVYWANFYEKLFNFREARYFDIKGEYTGLTSKAMSAPDGMIRIPLNEESSKGAGQIEEFLMQFNGEGIQHVAFLTDDLVKTWDALKKIGMRFMTAPGDEYYEMLEGRLPDHGEPVDQLQARGILLDGSSVEGDKRLLLQIFSETLMGPVFFEFIQRKGDDGFGPHSFKVLFESVERDQVRRGVLTAD
modifications: mutant HPPD polypeptide
notes: mutant HPPD polypeptide: P268G T270E E335P G336H N337S A340V I345V
B4: SEQ ID NO: 16: mutant HPPD polypeptide: P268S T270S E335P G336D N337S A340V I345K (protein)
chain: MADLYENPMGLMGFEFIEFASPTPGTLEPIFEIMGFTKVATHRSKNVHLYRQGEINLILNNEPNSIASYFAAEHGPSVCGMAFRVKDSQKAYNRALELGAQPIHIDTGPMELNLPAIKGIGGAPLYLIDRFGEGSSIYDIDFVYLEGVERNPVGAGLKVIDHLTHNVYRGRMVYWANFYEKLFNFREARYFDIKGEYTGLTSKAMSAPDGMIRIPLNEESSKGAGQIEEFLMQFNGEGIQHVAFLTDDLVKTWDALKKIGMRFMTAPSDSYYEMLEGRLPDHGEPVDQLQARGILLDGSSVEGDKRLLLQIFSETLMGPVFFEFIQRKGDDGFGPDSFKVLFESKERDQVRRGVLTAD
modifications: mutant HPPD polypeptide
notes: mutant HPPD polypeptide: P268S T270S E335P G336D N337S A340V I345K
B5: SEQ ID NO:2 (protein)
chain: MADLYENPMGLMGFEFIEFASPTPGTLEPIFEIMGFTKVATHRSKNVHLYRQGEINLILNNEPNSIASYFAAEHGPSVCGMAFRVKDSQKAYNRALELGAQPIHIDTGPMELNLPAIKGIGGAPLYLIDRFGEGSSIYDIDFVYLEGVERNPVGAGLKVIDHLTHNVYRGRMVYWANFYEKLFNFREARYFDIKGEYTGLTSKAMSAPDGMIRIPLNEESSKGAGQIEEFLMQFNGEGIQHVAFLTDDLVKTWDALKKIGMRFMTAPPDTYYEMLEGRLPDHGEPVDQLQARGILLDGSSVEGDKRLLLQIFSETLMGPVFFEFIQRKGDDGFGPWNFAQLFESIERDQVRRGVLTAD
modifications: mutant HPPD polypeptide

How the values were obtained:
[1] = system: transgenic T1 soybean events; experiment: Field trials of T1 soybean events, leaf damage eight days after application; type: in vivo
Experimental: Soybean plants expressing an HPPD inhibitor tolerant polypeptide of the present invention alone, or along with a gene conferring tolerance to glyphosate and/or a gene conferring tolerance to glufosinate or having a “plant expression cassette”, which includes only an HPPD inhibitor tolerant polypeptide of the present invention, were tested for tolerance to different HPPD inhibitor herbicide chemical classes. The transgenic plants were routinely analyzed for the expression and presence of the transgenes using the ELISA protein detection method (see detailed description under item D and H). Only plants recovering in the selection media and having a detectable HPPD transgene protein expression were regenerated, transferred to the greenhouse and used at V2-V4 growth stage for the HPPD inhibitor herbicide tolerance analysis of the T0 soybean events in the greenhouse (Example 6). The chemical formulation with HPPD inhibitor herbicides was supplemented with ammonium sulfate and methyl ester rapeseed oil. Herbicide tolerance evaluation was taken 5-21 days after spraying. The best performing independent T0 soybean events were selfed to produce T1 soybean seeds. In the field trails, the advanced T1 soybean seeds were planted and treated with either 210 g/ha of isoxaflutole or 150 g/ha of Cmpd.
In Table 10, the frequency of the soybean events showing a good tolerance, i.e. equal or less than 15% damage of the total leaf area are summarized

[2] = system: transgenic soybean T0 events; experiment: Greenhouse spray test of T0 soybean events, herbicide tolerance rating 0-3; type: in vivo; details: Cmpd. 1 300 g AI/ha; for number of events with Herbicide Tolerance Rating 0: five days after application; for number of events with Herbicide Tolerance Rating 1: rating 1 = slight tolerance, 50-95% leaf damage; for number of events with Herbicide Tolerance Rating 2: rating 2 = moderate tolerance, 10-49% of leaf area; for number of events with Herbicide Tolerance Rating 3: rating 3 = good tolerance, less than 10% of leaf area
Experimental: Tolerant green shoots were transferred to rooting media or grafted. Rooted plantlets were transferred to the greenhouse after an acclimation period. Plants containing the transgene were then sprayed with HPPD inhibitor herbicides, as for example with mesotrione at a rate of 300-600 g AI/ha, or with Cmpd. […] Five to ten days after the application, the symptoms due to the application of the herbicide were evaluated and compared to the symptoms observed on wild-type plants under the same conditions.
For example, T0 soybean plants having a “plant expression cassette”, which includes an HPPD inhibitor tolerant HPPD polypeptide of the present invention, were tested towards the tolerance of Cmpd. 1.
Prior greenhouse trials with the transgenic plants, soybean transformants were routinely analyzed for the expression and presence of the transgenes using the ELISA protein detection method (see detailed description under item D and H). Only plants recovering in the selection media and having a detectable HPPD transgene protein expression were used for the herbicide tolerance analysis. A DeVries Tracker Sprayer was calibrated prior to each spraying. The chemical formulation used for Cmpd. 1 was supplemented with ammonium sulfate and methylated rape seed oil. Spray tests were conducted with a concentration, which equals to 300 grams AI per hectare (300 g AI/ha). Tolerance was evaluated 5 days after spraying. […] A rating of “3” was assigned to plants showing good tolerance, i.e. less than 10% of the leaf area from the top three trifoliate leaves showing chlorosis or only very slight bleaching.

[3] = system: E. coli cells expressing an HPPD polypeptide; experiment: Brown Color Assay on solid LB-agar, visual score of brown pigment; type: cell-based; set-up: key to brown pigment formation: +++: a dark brown coloring as seen for E. coli cells expressing one of the respective mutant HPPD polypeptide without inhibitor; ++: medium brown pigmentation; +: light brown pigmentation; 0: no brown pigmentation development was detected on the LB agar plates
Experimental: Mutant HPPD polypeptides were analyzed using a brown color assay (WO2014/043435). Bacterial cells expressing the mutant HPPD polypeptide according to the invention were assayed in 96 well format for HPPD inhibitor tolerance by spotting on solid media containing LB-agar, selection agent for the expression vector pSE420(RI)NX (WO2014/043435), 5 mM tyrosine (Sigma-Aldrich, St. Louis, USA), 42 mM succinate (Sigma-Aldrich, St. Louis, USA) and six different concentrations of the HPPD inhibitor herbicide Cmpd. 1 (0-500 μM). In the brown color assay, an overnight culture of the E. coli cells expressing one of the respective mutant HPPD polypeptides were diluted to an OD600 of 1 and 10 μl extract was spotted in triplicates on plates containing 0, 25, 50, 100, 250, or 500 μM of Cmpd. 1. Plates were covered with airpore tape and incubated at 30 degrees C. After 24 hours, the cells were kept in darkness at room temperature and after 7 days the brown pigment formation was scored visually. In the presence of an HPPD inhibitor herbicide, this pigment formation is inhibited and the color of the agar plate will not alter, unless an HPPD inhibitor herbicide tolerant HPPD polypeptide is expressed and active. […] The “++” and “+” scores a medium and light brown pigmentation, respectively, and the “0” means that no brown pigmentation development was detected on the LB agar plates.

[4] = 150 g/ha Cmpd. 1, stage V2-V4, eight days after application
[5] = 210 g/ha isoxaflutole, stage V2-V4, eight days after application
[6] = 25 μM Cmpd. 1, scored after 7 days
[7] = 50 μM Cmpd. 1, scored after 7 days
[8] = 100 μM Cmpd. 1, scored after 7 days
[9] = 250 μM Cmpd. 1, scored after 7 days
[10] = 500 μM Cmpd. 1, scored after 7 days

Row | Molecule | Frequency in the population (events with ≤15% leaf damage) [1, 4] | Independent events with ≤15% leaf damage after spray [1, 4] | Frequency in the population (events with ≤15% leaf damage) [1, 5] | Independent events with ≤15% leaf damage after spray [1, 5] | proportion of T0 soybean events with less than 10% leaf damage ([2]; five days) | number of events with Herbicide Tolerance Rating 0 [2] | number of events with Herbicide Tolerance Rating 1 ([2]; five days) | number of events with Herbicide Tolerance Rating 2 ([2]; five days) | number of events with Herbicide Tolerance Rating 3 ([2]; five days) | brown pigment formation [3, 6] | brown pigment formation [3, 7] | brown pigment formation [3, 8] | brown pigment formation [3, 9] | brown pigment formation [3, 10] | Percentage events rated “2 & 3” ([2]; five days, less than 50% leaf damage)
1 | B1 | 42% | 10 | 50% | 12 | ~72% | 1 | 0 | 10 | 28 | +++ | +++ | +++ | ++ | + | –
2 | B2 | 70% | 14 | 55% | 11 | – | 0 | 5 | 43 | 34 | +++ | ++ | ++ | ++ | + | –
3 | B3 | 86% | 12 | 93% | 13 | – | 4 | 1 | 21 | 30 | +++ | +++ | +++ | ++ | + | –
4 | B4 | 95% | 19 | 95% | 19 | – | – | – | – | – | – | – | – | – | – | –
5 | B5 | – | – | – | – | 54% | – | – | – | – | – | – | – | – | – | 83%
